To fix the notation:
T1: Collagen VI (vWF1 domain) (UniProt P12109 20-256)
T1 construct: collagen alpha-1(VI) chain, UniProtKB P12109, residues 20-256 (vWF1 domain); also called Collagen VI alpha 1 chain (vWF1 domain); source: Expressed in the laboratory (PMID 24117177)
T1 sequence (looked up): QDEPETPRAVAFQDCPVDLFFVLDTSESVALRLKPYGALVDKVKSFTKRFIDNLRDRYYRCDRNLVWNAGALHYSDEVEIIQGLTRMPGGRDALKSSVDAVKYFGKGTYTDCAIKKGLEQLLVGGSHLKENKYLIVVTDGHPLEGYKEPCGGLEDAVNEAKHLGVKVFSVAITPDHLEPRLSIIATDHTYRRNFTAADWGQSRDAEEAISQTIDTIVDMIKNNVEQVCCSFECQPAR

T2: Dermatopontin (UniProt Q07507 19-201)
T2 construct: dermatopontin, UniProtKB Q07507; source: bought: Abcam, ab158310
T2 sequence (looked up): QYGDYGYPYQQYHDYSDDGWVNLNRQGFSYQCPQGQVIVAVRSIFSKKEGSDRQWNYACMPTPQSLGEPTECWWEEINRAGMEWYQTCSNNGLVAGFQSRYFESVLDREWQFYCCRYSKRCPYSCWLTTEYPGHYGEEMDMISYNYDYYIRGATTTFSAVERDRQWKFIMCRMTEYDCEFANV

T3: Fibromodulin (UniProt P13605 19-376)
T3 construct: proteoglycan; source: bought: Sigma-Aldrich, F6921
T3 sequence (looked up): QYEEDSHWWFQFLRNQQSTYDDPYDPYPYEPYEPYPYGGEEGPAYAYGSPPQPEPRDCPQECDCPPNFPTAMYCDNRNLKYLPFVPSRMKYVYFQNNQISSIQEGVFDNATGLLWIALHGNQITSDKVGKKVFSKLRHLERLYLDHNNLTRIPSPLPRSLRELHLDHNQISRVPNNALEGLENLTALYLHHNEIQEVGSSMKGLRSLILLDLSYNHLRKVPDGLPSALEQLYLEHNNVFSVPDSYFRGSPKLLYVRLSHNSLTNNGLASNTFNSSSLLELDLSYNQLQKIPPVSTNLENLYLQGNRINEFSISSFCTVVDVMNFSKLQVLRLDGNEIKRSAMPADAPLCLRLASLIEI

T4: Lysyl oxidase homolog 2 (LOXL2) (UniProt Q9Y4K0 26-774)
T4 construct: lysyl oxidase homolog 2, UniProtKB Q9Y4K0; also called lysyl oxidase-like 2; source: bought: R&D Systems, 2639-AO
T4 sequence (looked up): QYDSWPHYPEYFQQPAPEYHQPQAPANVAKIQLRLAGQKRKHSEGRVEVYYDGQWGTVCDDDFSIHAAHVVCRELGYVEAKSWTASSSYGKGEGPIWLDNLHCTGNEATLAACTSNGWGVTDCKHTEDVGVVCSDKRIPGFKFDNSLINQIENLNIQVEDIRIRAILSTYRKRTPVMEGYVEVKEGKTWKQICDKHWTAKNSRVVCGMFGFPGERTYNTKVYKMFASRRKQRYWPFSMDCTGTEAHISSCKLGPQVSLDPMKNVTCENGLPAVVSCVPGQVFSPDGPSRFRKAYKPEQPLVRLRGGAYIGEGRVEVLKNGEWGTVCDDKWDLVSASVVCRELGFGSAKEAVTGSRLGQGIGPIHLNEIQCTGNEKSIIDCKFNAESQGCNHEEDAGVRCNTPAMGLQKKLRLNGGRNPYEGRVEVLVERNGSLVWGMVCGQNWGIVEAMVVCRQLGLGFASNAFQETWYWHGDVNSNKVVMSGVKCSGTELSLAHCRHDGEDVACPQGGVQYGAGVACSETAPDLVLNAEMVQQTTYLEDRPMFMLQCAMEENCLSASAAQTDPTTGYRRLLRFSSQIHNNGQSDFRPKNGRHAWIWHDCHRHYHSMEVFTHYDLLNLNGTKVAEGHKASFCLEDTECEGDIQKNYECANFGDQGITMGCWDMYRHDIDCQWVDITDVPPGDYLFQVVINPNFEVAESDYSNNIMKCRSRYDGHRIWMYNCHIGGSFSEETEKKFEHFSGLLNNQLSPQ

T5: Matrix metalloproteinase-2 (MMP-2) (UniProt P08253 30-660)
T5 construct: matrix metalloproteinase-2, UniProtKB P08253, residues 30-660; source: bought: R&D Systems, 902-MPN
T5 sequence (looked up): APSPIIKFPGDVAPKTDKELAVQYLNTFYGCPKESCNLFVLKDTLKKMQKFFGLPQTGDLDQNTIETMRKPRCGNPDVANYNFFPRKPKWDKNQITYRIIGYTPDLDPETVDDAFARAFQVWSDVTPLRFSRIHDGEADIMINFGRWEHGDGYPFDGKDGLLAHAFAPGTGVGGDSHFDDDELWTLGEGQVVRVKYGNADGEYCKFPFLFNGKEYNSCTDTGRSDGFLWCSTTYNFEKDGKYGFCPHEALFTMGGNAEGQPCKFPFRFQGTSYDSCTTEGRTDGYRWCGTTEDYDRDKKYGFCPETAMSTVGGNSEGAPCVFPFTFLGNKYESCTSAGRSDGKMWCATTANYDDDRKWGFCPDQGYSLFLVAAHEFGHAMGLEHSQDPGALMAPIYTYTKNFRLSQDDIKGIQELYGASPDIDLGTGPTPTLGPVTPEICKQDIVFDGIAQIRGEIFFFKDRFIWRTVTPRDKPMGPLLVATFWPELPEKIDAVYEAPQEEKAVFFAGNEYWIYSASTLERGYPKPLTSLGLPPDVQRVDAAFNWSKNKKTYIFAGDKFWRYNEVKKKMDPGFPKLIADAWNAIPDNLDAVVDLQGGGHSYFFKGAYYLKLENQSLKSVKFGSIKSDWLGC

T6: Transglutaminase-2 (TG-2), mutant Cys277Ser (UniProt P21980 1-687, Cys277Ser)
T6 construct: transglutaminase-2, UniProtKB P21980; source: bought: Zedira, T018
T6 sequence (looked up): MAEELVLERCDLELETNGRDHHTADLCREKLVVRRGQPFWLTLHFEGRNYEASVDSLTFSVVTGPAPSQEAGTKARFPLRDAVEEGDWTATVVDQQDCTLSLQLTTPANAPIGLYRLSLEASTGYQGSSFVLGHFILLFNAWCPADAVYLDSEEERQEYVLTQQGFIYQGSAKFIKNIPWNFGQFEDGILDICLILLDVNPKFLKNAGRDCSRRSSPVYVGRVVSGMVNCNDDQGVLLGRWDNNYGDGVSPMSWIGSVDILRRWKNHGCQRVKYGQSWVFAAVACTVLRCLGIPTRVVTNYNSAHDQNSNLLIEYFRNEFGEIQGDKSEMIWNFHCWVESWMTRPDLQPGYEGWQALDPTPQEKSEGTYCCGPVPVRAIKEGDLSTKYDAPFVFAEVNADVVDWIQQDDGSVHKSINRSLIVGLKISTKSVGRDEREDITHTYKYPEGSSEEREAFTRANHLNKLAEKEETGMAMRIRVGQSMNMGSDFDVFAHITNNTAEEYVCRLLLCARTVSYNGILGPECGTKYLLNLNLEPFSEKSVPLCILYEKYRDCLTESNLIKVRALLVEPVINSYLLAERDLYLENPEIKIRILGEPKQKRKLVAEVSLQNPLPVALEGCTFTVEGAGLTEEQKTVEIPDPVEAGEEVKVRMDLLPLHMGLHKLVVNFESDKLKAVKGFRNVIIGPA

B1: Fibronectin fragment III1-C (anastellin) (domain or fragment)
chain: not shown
notes: anastellin, fragment III1-C of fibronectin, UniProtKB P02751, residues 631-702; source: bought: Sigma-Aldrich, F3542
B2: Epidermal growth factor (EGF) (ligand, UniProt P01133 971-1023, looked up)
chain: NSDSECPLSHDGYCLHDGVCMYIEALDKYACNCVVGYIGERCQYRDLKWWELR
notes: epidermal growth factor, feature PRO_0000007541 of pro-epidermal growth factor, UniProtKB P01133; source: bought: Sigma-Aldrich, E9644
B3: Lysyl oxidase propeptide (LOX-PP) (Pro24Leu) (domain or fragment, human, UniProt P28300 22-168, looked up)
chain: APLAAGQQQPPREPPAAPGAWRQQIQWENNGQVFSLLSLGSQYQPQRRRDPGAAVPGAANASAQQPRTPILLIRDNRTAAARTRTAGSSGVTAGRPRPTARHWFQAGYSTSRAREAGASRAENQTAPGEVPALSNLRPPSRVDGMVG
modifications: N-linked glycans (removed by PNGase F)
notes: propeptide of human lysyl oxidase, UniProtKB P28300, residues 22-168; expressed from the pCEP-Pu-BM40 vector; also called propeptide of human lysyl oxidase; source: HEK293-EBNA, purified (anti-FLAG resin)

Common to all, as to assay: SPR; SPR imaging (SPRi, Biacore Flexchip): partners spotted in triplicate on a bare gold chip at 0.06 to 1 mg/ml; purified LOX-PP injected at 2 µM and recirculated for 20 min; PBS with 0.05% Tween 20, 25 °C
Common to all, as to conditions: both partners purified

Assay [1] has as its target B3.
Assay [2] deals with T1, Collagen VI (vWF1 domain).
The target of the next assay is T2, Dermatopontin.
Another assay addresses T3, Fibromodulin.
In assay [3] the target is T4, Lysyl oxidase homolog 2 (LOXL2).
In assay [4] the target is T5, Matrix metalloproteinase-2 (MMP-2).
The target of assay [5] is T6, Transglutaminase-2 (TG-2), mutant ….

On to B1, for which the binding result in assay [1] is listed as “binds”.
B2: the binding result in assay [1] was “binds”.
B3: the binding result (in assay [2]; with Dermatopontin; with Fibromodulin; in assay [3]; in assay [4]; in assay [5]) was “binds” in each case.

These data come from article PMC6078952, “Insights into the structure and dynamics of lysyl oxidase propeptide, a flexible protein with numerous partners” (Scientific Reports, 2018).
